Patent US20260146093A1 (DREN BIO MANAGEMENT, published 2026)
Where a chain is given by its changes, count along the chain named. Where two headings read alike, the source gives them in different places. Each block holds one binder with its values, some of them ahead of it.

Legend:
[1] = biological target: T1, human Trop-2 expressed on cells (A-431, NCI-N87, SKBR3, CHO-K1-hTrop2) (human, UniProt P09758 27-323); assay: cell-based or functional assay
T1 sequence: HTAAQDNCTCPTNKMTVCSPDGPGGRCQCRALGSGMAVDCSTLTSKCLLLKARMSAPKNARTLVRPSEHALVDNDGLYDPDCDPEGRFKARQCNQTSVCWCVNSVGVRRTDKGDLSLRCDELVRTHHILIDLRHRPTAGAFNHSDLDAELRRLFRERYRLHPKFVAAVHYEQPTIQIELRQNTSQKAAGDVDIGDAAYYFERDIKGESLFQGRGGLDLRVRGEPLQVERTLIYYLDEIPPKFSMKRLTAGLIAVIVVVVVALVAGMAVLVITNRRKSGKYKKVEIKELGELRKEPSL

[2] = biological target: T1, human Trop-2 expressed on cells (A-431, …); assay: flow cytometry on SKBR3 cells, fluorescent anti-human secondary antibody
Description: (§1) FIGS. 2A-2D show binding assays in which cells expressing human Trop-2 were incubated with anti-Dectin-1 x anti-Trop-2 bispecific antibodies with human IgG1 Fc (as indicated) or isotype control, and binding was measured by flow cytometry using a fluorescently labeled anti-human secondary antibody. Shown are binding of the indicated antibodies to human epidermoid carcinoma A-431 cells (FIG. 2A), human gastric carcinoma NCI-N87 cells (FIG. 2B), human breast cancer SKBR3 cells (FIG. 2C), or CHO-K1 cells expressing human Trop-2 (FIG. 2D).
(§2) Human cancer cell lines and CHO cells expressing human Trop-2 (CHO-K1-hTrop2 cells) were incubated with the anti-Dectin-1 x anti-Trop-2 bispecific antibodies, Trop-2 clones 15, 45, 76, 77, 63, 64, 65 and 123, or the hIgG1 isotype, followed by a fluorescent anti-human secondary antibody. The primary antibodies were used in an 8-point serial dose titration starting at 300 or 100 nM and diluted 1 to 3.

[3] = biological target: T1, human Trop-2 expressed on cells (A-431, …); assay: flow cytometry on NCI-N87 cells, fluorescent anti-human secondary antibody
Description: as §1, §2

Human Trop-2 ECD protein = biological target: T2, Human Trop-2 ECD protein (human, UniProt P09758 27-274); assay: BLI, hTrop-2 ECD captured via anti-HIS Tag, bispecific antibody in solution (monovalent)
T2 construct: also called hTrop-2 ECD; not shown: HIS tag (captured on the biosensor via anti-HIS Tag)
T2 sequence: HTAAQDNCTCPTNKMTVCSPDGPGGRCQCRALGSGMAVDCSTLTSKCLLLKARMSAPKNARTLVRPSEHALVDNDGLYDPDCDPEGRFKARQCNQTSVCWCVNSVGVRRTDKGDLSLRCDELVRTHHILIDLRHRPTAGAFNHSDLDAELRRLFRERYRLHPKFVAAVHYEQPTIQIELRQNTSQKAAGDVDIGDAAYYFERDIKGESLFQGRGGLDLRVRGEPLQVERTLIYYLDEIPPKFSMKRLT
Description: Monovalent binding affinity was measured by biosensor (BLI). Human Trop-2 ECD protein was captured on biosensor via anti-HIS Tag. On and off rate binding was measured against bispecific antibodies with 1 arm binding to hTrop2 at varying concentrations. On rate and off rate measurements were fitted to generated KD values.
Monovalent binding affinity of each anti-Dectin-1 x anti-Trop-2 bispecific antibody to the human Trop-2 ECD was also measured by biosensor (BLI).

[4] = biological target: T1, human Trop-2 expressed on cells (A-431, …); assay: flow cytometry on CHO-K1-hTrop2 cells, fluorescent anti-human secondary antibody
Description: as §1, §2

[5] = biological target: T1, human Trop-2 expressed on cells (A-431, …); assay: flow cytometry on A-431 cells, fluorescent anti-human secondary antibody
Description: as §1, §2

[6] = biological target: T3, human Dectin-1 isoform A on HEK-Blue hDectin-1a cells (human, UniProt Q9BXN2 1-247); assay: cell-based or functional assay
T3 sequence: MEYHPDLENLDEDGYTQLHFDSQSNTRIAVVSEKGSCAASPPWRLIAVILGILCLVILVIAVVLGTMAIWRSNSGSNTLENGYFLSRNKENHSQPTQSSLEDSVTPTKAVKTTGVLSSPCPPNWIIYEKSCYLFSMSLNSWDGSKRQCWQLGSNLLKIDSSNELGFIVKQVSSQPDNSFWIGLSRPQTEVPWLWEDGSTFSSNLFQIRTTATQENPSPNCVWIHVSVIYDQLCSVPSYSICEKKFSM

[7] = biological target: T1, human Trop-2 expressed on cells (A-431, …); assay: flow cytometry on CHO-K1 cells expressing hTrop-2 (sheet title: Binding to Chok1 hTrop2)
[8] = biological target: T3, human Dectin-1 isoform A on HEK-Blue …; assay: cell-based or functional assay; remark: listed apart in the source
[9] = biological target: T3, human Dectin-1 isoform A on HEK-Blue …; assay: cell-based or functional assay; remark: listed apart in the source
[10] = biological target: human Dectin-1 on HEK cells expressing hDectin-1 (human) (UniProt Q9BXN2); assay: flow cytometry on HEK cells expressing hDectin-1 (sheet title: Binding to hDec1 on Hek)
[11] = biological target: T1, human Trop-2 expressed on cells (A-431, …); assay: flow cytometry on A431 cells expressing hTrop-2

B1: 2M24 × Trop-2 clone C hG1 (bispecific antibody, V domains shown)
VH 1: QVQLVQSGAEVKKPGASVKVSCKSSGYTFTDYYIHWVRQAPGQGLEWMGWINPNSGDTNYAQKFQGRITMTRDTSISTAYLELSRLRSDDTAVFYCARNSGSYSFGYWGQGTLVTVSS
VL 1: DIQMTQSPSSVSASVGDRVTITCRASQGISSWLAWYQQKPGKAPKLLIFGASSLQSGVPSRFSGSGSGTDFTLTVSSLQPEDFATYYCQQAYSFPFTFGPGTKVDIE
VH 2: QVQLVQSGSELKKPGASVKLSCKASGYTFTSYGMNWVRQAPGQGLEWMGWINTNTGNPTYAQGFTGRFVFSLDTSVSTAYLQISSLKAEDTAVYYCARGYNWNDGDFDYWGQGTLVTVSS
VL 2: AIQMTQSPSSLSPSVGDRVTITCRASQGIRNDLGWYQQKPGKAPKLLIFAASSLQSGVPSRFSGSGSGTDFTLTISNLQPEDFATYYCLQNYNYPLTFGGGTKVEIK
notes: Full chains appear only in embodiments and are not tied to the tested molecule; also called anti-Dectin-1 x anti-Trop-2 bispecific antibody; DR02B.77
Induction of phagocytosis in vitro of A-431 cells by human macrophages, EC50 [1]: 0.45 nM
Induction of phagocytosis in vitro of NCI-N87 cells by human macrophages, EC50 [1]: 0.132 nM
Induction of phagocytosis in vitro of SKBR3 cells by human macrophages, EC50 [1]: 0.319 nM
EC50 [2]: 28 nM
EC50 [3]: 39.5 nM
Kd (Human Trop-2 ECD protein): 12.9 nM
koff (Human Trop-2 ECD protein): 0.00181 s⁻¹
kon (Human Trop-2 ECD protein): 140000 M⁻¹ s⁻¹
EC50 [4]: 7.25 nM
EC50 [5]: 53.2 nM
Dectin-1 pathway activation (SEAP secretion), HEK-Blue hDectin-1a cells in the presence of A-431 cells, EC50 [6]: 0.08 µg/mL
Dectin-1 pathway activation (SEAP secretion), HEK-Blue hDectin-1a cells in the presence of CHO-K1-hTrop2 cells, EC50 [6]: 0.05 µg/mL
Dectin-1 pathway activation (SEAP secretion), HEK-Blue hDectin-1a cells in the presence of NCI-N87 cells, EC50 [6]: 0.06 µg/mL
Dectin-1 pathway activation (SEAP secretion), HEK-Blue hDectin-1a cells in the presence of SKBR3 cells, EC50 [6]: 0.05 µg/mL

B2: 2M24 × Trop-2 clone B hG1 (bispecific antibody, V domains shown)
VH 1: B1 VH 1
VL 1: B1 VL 1
VH 2: QVQLQESGPGLVKPSGTLSLTCAVSGGSISSSNWWSWVRQPPGKGLEWIGEIYHDGSTDYFPSLKSRVTISVDKSKNQFSLKLSSVTAADTAVYYCARDNWGFDYWGQGTLVTVSS
VL 2: DIVLTQSPGTLSLSPGERATLSCRASQSVSSSYLAWYQQKPGQAPRLLISGASSRATGIPDRFSGSGSGTDFTLTISRLEPEDFAVYYCQQYGSSHRTFGQGTKVEIK
notes: Full chains appear only in embodiments and are not tied to the tested molecule; also called anti-Dectin-1 x anti-Trop-2 bispecific antibody; DR02B.65
Induction of phagocytosis in vitro of A-431 cells by human macrophages, EC50 [1]: 0.34 nM
Induction of phagocytosis in vitro of NCI-N87 cells by human macrophages, EC50 [1]: 1.12 nM
Induction of phagocytosis in vitro of SKBR3 cells by human macrophages, EC50 [1]: 0.269 nM
EC50 [2]: 24.2 nM
EC50 [3]: 17.9 nM
Kd (Human Trop-2 ECD protein): 9.55 nM
koff (Human Trop-2 ECD protein): 0.000475 s⁻¹
kon (Human Trop-2 ECD protein): 49700 M⁻¹ s⁻¹
EC50 [4]: 4.32 nM
EC50 [5]: 7.56 nM
Dectin-1 pathway activation (SEAP secretion), HEK-Blue hDectin-1a cells in the presence of A-431 cells, EC50 [6]: 0.04 µg/mL
Dectin-1 pathway activation (SEAP secretion), HEK-Blue hDectin-1a cells in the presence of CHO-K1-hTrop2 cells, EC50 [6]: 0.07 µg/mL
Dectin-1 pathway activation (SEAP secretion), HEK-Blue hDectin-1a cells in the presence of NCI-N87 cells, EC50 [6]: 0.03 µg/mL
Dectin-1 pathway activation (SEAP secretion), HEK-Blue hDectin-1a cells in the presence of SKBR3 cells, EC50 [6]: 0.04 µg/mL

B6: Dectin-1 2M24.131 x Trop-2 clone B hIgG1 (bispecific antibody)
anti-Dectin-1 scFv-Fc arm: QVQLVQSGAEVKKPGASVKVSCKASGYTFTDYYMHWVRQAPGQGLEWMGWINPNEGDTNYAQKFEGRITMTRDTSISTAYMELSRLRSDDTAVYYCARNTGAYSFGYWGCGTLVTVSSGGGGSGGGGSGGGGSGGGGSDIQMTQSPSSVSASVGDRVTITCRASQGISSWLAWYQQKPGKCPKLLIYGASDLQSGVPSRFSGSGSGTDFTLTISSLQPEDFATYYCQQAYGFPFTFGPGTKVDIKEPK
anti-Trop-2 heavy chain: B2 VH 2
anti-Trop-2 light chain: B2 VL 2
notes: member of group m8; also called 2M24.131xTrop-2 clone B hG1; scFv-format anti-Dectin-1 x anti-Trop-2 bispecific, clone B
EC50 of SEAP secretion by the hDectin-1 reporter cells (hDec1 Reporter Assay; the Trop-2-expressing cell line is not named) [9]: 0.91 nM
EC50 (read off the curve) [10]: 3 nM
binding result [11]: binds

B7: Dectin-1 2M24.131 x Trop-2 clone C hIgG1 (bispecific antibody)
anti-Dectin-1 scFv-Fc arm: B6 anti-Dectin-1 scFv-Fc arm
anti-Trop-2 heavy chain: B1 VH 2
anti-Trop-2 light chain: B1 VL 2
notes: member of group m8; also called 2M24.131xTrop-2 clone C hG1; scFv-format anti-Dectin-1 x anti-Trop-2 bispecific, clone C
EC50 of SEAP secretion by the hDectin-1 reporter cells (hDec1 Reporter Assay; the Trop-2-expressing cell line is not named) [9]: 1.49 nM
EC50 (read off the curve) [10]: 3 nM
binding result [11]: binds

More lines, now with the values ahead:

EC50 (read off the curve) [7]: ~9 nM
EC50 of SEAP secretion by the hDectin-1 reporter cells (hDec1 Reporter Assay; the Trop-2-expressing cell line is not named) [8]: 0.69 nM
B3: Dectin-1 2M24.124 x Trop-2 clone C hIgG1 (bispecific antibody)
anti-Dectin-1 heavy chain: B1 VH 1 with S24A, I34M, S55E, Q65E, L81M, F94Y, S100T, S102A, Q110C
anti-Dectin-1 light chain: B1 VL 1 with A43C, F49Y, S53D, V75I, S93G, E107K
anti-Trop-2 heavy chain: B1 VH 2
anti-Trop-2 light chain: B1 VL 2
notes: member of group m9; also called 2M24.124xTrop-2 clone C hG1; disulfide-engineered Fab-format bispecific, clone C

EC50 of SEAP secretion by the hDectin-1 reporter cells (hDec1 Reporter Assay; the Trop-2-expressing cell line is not named) [9]: 1.46 nM
EC50 (read off the curve) [10]: 4 nM
binding result [11]: binds
B4: Dectin-1 2M24.131 x Trop-2 clone A hIgG1 (bispecific antibody)
anti-Dectin-1 scFv-Fc arm: B6 anti-Dectin-1 scFv-Fc arm
anti-Trop-2 heavy chain: QVQLQQSGSELKKPGASVKVSCKASGYTFTNYGMNWVKQAPGQGLKWMGWINTYTGEPTYTDDFKGRFAFSLDTSVSTAYLQISSLKADDTAVYFCARGGFGSSYWYFDVWGQGSLVTVSS
anti-Trop-2 light chain: DIQLTQSPSSLSASVGDRVSITCKASQDVSIAVAWYQQKPGKAPKLLIYSASYRYTGVPDRFSGSGSGTDFTLTISSLQPEDFAVYYCQQHYITPLTFGAGTKVEIK
notes: member of group m8; also called 2M24.131xTrop-2 clone A hG1; scFv-format anti-Dectin-1 x anti-Trop-2 bispecific, clone A

Induction of phagocytosis in vitro of A-431 cells by human macrophages, EC50 [1]: 0.31 nM
Induction of phagocytosis in vitro of NCI-N87 cells by human macrophages, EC50 [1]: 0.2 nM
Induction of phagocytosis in vitro of SKBR3 cells by human macrophages, EC50 [1]: 0.507 nM
EC50 [2]: 18.5 nM
EC50 [3]: 11.7 nM
Kd (Human Trop-2 ECD protein): 4.12 nM
koff (Human Trop-2 ECD protein): 0.000891 s⁻¹
kon (Human Trop-2 ECD protein): 217000 M⁻¹ s⁻¹
EC50 [4]: 3.78 nM
EC50 [5]: 6.12 nM
Dectin-1 pathway activation (SEAP secretion), HEK-Blue hDectin-1a cells in the presence of A-431 cells, EC50 [6]: 0.05 µg/mL
Dectin-1 pathway activation (SEAP secretion), HEK-Blue hDectin-1a cells in the presence of CHO-K1-hTrop2 cells, EC50 [6]: 0.06 µg/mL
Dectin-1 pathway activation (SEAP secretion), HEK-Blue hDectin-1a cells in the presence of NCI-N87 cells, EC50 [6]: 0.04 µg/mL
Dectin-1 pathway activation (SEAP secretion), HEK-Blue hDectin-1a cells in the presence of SKBR3 cells, EC50 [6]: 0.04 µg/mL
B5: 2M24 × Trop-2 clone A hG1 (bispecific antibody, V domains shown)
VH 1: B1 VH 1
VL 1: B1 VL 1
VH 2: B4 anti-Trop-2 heavy chain
VL 2: B4 anti-Trop-2 light chain
notes: also called anti-Dectin-1 x anti-Trop-2 bispecific antibody
